# Test results from US20040005324A1.
# B1: human monoclonal Fab RSVF2-5 (Fab, V domains shown)
# VH: LEESGGDLVQPGRSLRLSCSTSGFSFGDYPVNWFRQAPGKGLEWLGIVRSRLYGGTLQYAASVEGRFTISRDDSKSIAYLHMNSLKSEDTAVYYCGVPVANIDYWGQGTLVTVSSASTKGPSS
# VL: LTQPHSVSESLGKTVTISCTRAGGRIASNYVQWYQQRPGSSPTTVIYEDNQRPFGVPDRFSGSIDTSSNSASLTISGLKTEDEADYYCQSYDSENPWVFGGGTKLTVLG
# Columns and labels:
# Assay in all cases: cell-based or functional assay
# [1] = biological target: RSV F glycoprotein of MARM v1269 (strain A2 escape mutant, substitution at aa 389) (respiratory syncytial virus strain A2), P03420
# [2] = biological target: RSV F glycoprotein of MARM v1302A/1 (strain A2 escape mutant, substitutions at aa 241/421) (respiratory syncytial virus strain A2), P03420
# [3] = biological target: RSV F glycoprotein of MARM v1302A/6 (strain A2 escape mutant, substitutions at aa 241/421) (respiratory syncytial virus strain A2), P03420
# [4] = biological target: RSV F glycoprotein of MARM v1308F (strain A2 escape mutant, substitutions at aa 241/421) (respiratory syncytial virus strain A2), P03420
binder,measurement,setting,value
B1,Dose for 60% plaque reduction,[1],< 0.3 µg/mL
same,Dose for 60% plaque reduction,[2],1.4 µg/mL
same,Dose for 60% plaque reduction,[3],< 0.3 µg/mL
same,Dose for 60% plaque reduction,[4],1 µg/mL
